Results taken from US20240043483A1, “TAU BIOSENSOR CELL LINES” (THE BOARD OF REGENTS OF THE UNIVERSITY OF TEXAS SYSTEM, priority 2020, published 2024).

Assays:
[1] = target: tau RD(P301S)-mClover3 fusion (tau segment 246 to 378 with the P301S mutation, linker …, mClover3) (UniProt P10636); assay: cell-based or functional assay
[2] = target: tau RD(P301S)-mCerulean3 fusion (tau segment 246 to 378 with the P301S mutation, linker …, mCerulean3) (UniProt P10636); assay: cell-based or functional assay
Sequence of tau RD(P301S)-mCerulean3 fusion (tau segment 246 to 378 with the P301S mutation, linker …, mCerulean3) (P10636 other isoform, or with tags, fused parts or gaps P301S P301S P301S P301S): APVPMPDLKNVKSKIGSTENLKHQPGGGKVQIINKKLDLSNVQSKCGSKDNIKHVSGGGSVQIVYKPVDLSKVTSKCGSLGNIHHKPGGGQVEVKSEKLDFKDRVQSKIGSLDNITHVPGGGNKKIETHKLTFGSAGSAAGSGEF

Sequence of tau RD(P301S)-mClover3 fusion (tau segment 246 to 378 with the P301S mutation, linker …, mClover3) (P10636 other isoform, or with tags, fused parts or gaps P301S P301S P301S P301S): as above

- seeding activity (FRET positivity) after TauA immunopurification of fibrils spiked into 1 ml control CSF [1]: 100 attomolar
- seeding activity (FRET positivity) after TauA immunopurification of fibrils spiked into 1 ml control CSF [2]: 100 attomolar
Substance: recombinant tau fibrils made of wild-type full-length (2N4R) tau (from UniProt P10636 2-441)
